The values below come from patent publication US20240066131A1 (Protagonist Therapeutics, Inc., priority 2020, published 2024).

Starred links: 1 amine or outer side, 2 acyl side, 3 side chain; linkers in the order of their positions; H or OH if unused. Positions of bridges follow the written chain, without caps; N, C: chain ends. Non-standard residues stand in square brackets, D forms with d. Groups on a side chain read outwards from the residue. No end group written: not given here. *: point of attachment. Gal = N6-(4-(galactopyranosyloxy)butanoyl) on the lysine side chain; N_Butyl_Phe = CCCCN([C@@H](Cc1ccccc1)C(=O)[*:2])[*:1]; C18 diacid = O=C(O)CCCCCCCCCCCCCCCCC(=O)*; Dip = N[C@H](C(=O)O)C(c1ccccc1)c1ccccc1; γGlu = O=C(O)[C@H](CCC(=O)[*:2])N[*:1]; Palmitoyl = CCCCCCCCCCCCCCCC(=O)*; Myristoyl = CCCCCCCCCCCCCC(=O)*; β3hF = N[C@H](CC(=O)O)Cc1ccccc1; NMeK = CN[C@@H](CCCCN)C(=O)O; Isovaleryl = CC(C)CC(=O)*; Dap = NC[C@H](N)C(=O)O; AEEA = NCCOCCOCC(=O)O; Ahx = NCCCCCC(=O)O

Sequences and labels used below:
B1: Ac-[Lys(1PEG2_1PEG2_IsoGlu_C18_Diacid)]-T-H-[Dpa]-P-A-I-[(D)Lys]-[bhPhe]-NH2 (peptide)
peptide: Ac-K([AEEA-AEEA-γGlu-C18 diacid])TH[Dip]PAI[dK][β3hF]-NH2
SMILES: CC[C@H](C)[C@H](NC(=O)[C@H](C)NC(=O)[C@@H]1CCCN1C(=O)[C@@H](NC(=O)[C@H](Cc1c[nH]cn1)NC(=O)[C@@H](NC(=O)[C@H](CCCCNC(=O)COCCOCCNC(=O)COCCOCCNC(=O)CC[C@H](NC(=O)CCCCCCCCCCCCCCCCC(=O)O)C(=O)O)NC(C)=O)[C@@H](C)O)C(c1ccccc1)c1ccccc1)C(=O)N[C@H](CCCCN)C(=O)N[C@H](CC(N)=O)Cc1ccccc1
B2: Isovaleric Acid-E-T-H-F-P-A-I-[Lys(Ahx_C14_acid)]-F-E-P-R-[(D)Ser]-NH2 (peptide)
peptide: Isovaleryl-ETHFPAIK([Ahx-Myristoyl])FEPR[dS]-NH2
SMILES: CCCCCCCCCCCCCC(=O)NCCCCCC(=O)NCCCC[C@H](NC(=O)[C@@H](NC(=O)[C@H](C)NC(=O)[C@@H]1CCCN1C(=O)[C@H](Cc1ccccc1)NC(=O)[C@H](Cc1c[nH]cn1)NC(=O)[C@@H](NC(=O)[C@H](CCC(=O)O)NC(=O)CC(C)C)[C@@H](C)O)[C@@H](C)CC)C(=O)N[C@@H](Cc1ccccc1)C(=O)N[C@@H](CCC(=O)O)C(=O)N1CCC[C@H]1C(=O)N[C@@H](CCCNC(=N)N)C(=O)N[C@H](CO)C(N)=O
B3: Ac-[Lys(1PEG2_1PEG2_Ahx_C18_Diacid)]-T-H-[Dpa]-P-A-I-[(D)Lys]-[bhPhe]-NH2 (peptide)
peptide: Ac-K([AEEA-AEEA-Ahx-C18 diacid])TH[Dip]PAI[dK][β3hF]-NH2
SMILES: CC[C@H](C)[C@H](NC(=O)[C@H](C)NC(=O)[C@@H]1CCCN1C(=O)[C@@H](NC(=O)[C@H](Cc1c[nH]cn1)NC(=O)[C@@H](NC(=O)[C@H](CCCCNC(=O)COCCOCCNC(=O)COCCOCCNC(=O)CCCCCNC(=O)CCCCCCCCCCCCCCCCC(=O)O)NC(C)=O)[C@@H](C)O)C(c1ccccc1)c1ccccc1)C(=O)N[C@H](CCCCN)C(=O)N[C@H](CC(N)=O)Cc1ccccc1
B4: Isovaleric Acid-E-T-H-F-P-Dap-I-[Lys(1PEG2_1PEG2_IsoGlu_C18_Diacid)]-F-E-P-R-S-K-G-E-K-NH2 (peptide)
peptide: Isovaleryl-ETHFP[Dap]IK([AEEA-AEEA-γGlu-C18 diacid])FEPRSKGEK-NH2
modifications: lactam 6-16
SMILES: CC[C@H](C)[C@@H]1NC(=O)[C@@H](NC(=O)[C@@H]2CCCN2C(=O)[C@H](Cc2ccccc2)NC(=O)[C@H](Cc2c[nH]cn2)NC(=O)[C@@H](NC(=O)[C@H](CCC(=O)O)NC(=O)CC(C)C)[C@@H](C)O)CNC(=O)CC[C@@H](C(=O)N[C@@H](CCCCN)C(N)=O)NC(=O)CNC(=O)[C@H](CCCCN)NC(=O)[C@H](CO)NC(=O)[C@H](CCCNC(=N)N)NC(=O)[C@@H]2CCCN2C(=O)[C@H](CCC(=O)O)NC(=O)[C@H](Cc2ccccc2)NC(=O)[C@H](CCCCNC(=O)COCCOCCNC(=O)COCCOCCNC(=O)CC[C@H](NC(=O)CCCCCCCCCCCCCCCCC(=O)O)C(=O)O)NC1=O
B5: Isovaleric Acid-[Lys(1PEG2_1PEG2_Ahx_C18_Diacid)]-T-H-[Dpa]-P-A-I-[(D)Lys]-[bhPhe]-NH2 (peptide)
peptide: Isovaleryl-K([AEEA-AEEA-Ahx-C18 diacid])TH[Dip]PAI[dK][β3hF]-NH2
SMILES: CC[C@H](C)[C@H](NC(=O)[C@H](C)NC(=O)[C@@H]1CCCN1C(=O)[C@@H](NC(=O)[C@H](Cc1c[nH]cn1)NC(=O)[C@@H](NC(=O)[C@H](CCCCNC(=O)COCCOCCNC(=O)COCCOCCNC(=O)CCCCCNC(=O)CCCCCCCCCCCCCCCCC(=O)O)NC(=O)CC(C)C)[C@@H](C)O)C(c1ccccc1)c1ccccc1)C(=O)N[C@H](CCCCN)C(=O)N[C@H](CC(N)=O)Cc1ccccc1
B6: Isovaleric Acid-E-T-H-F-P-E-I-[Lys(1PEG2_1PEG2_IsoGlu_C18_Diacid)]-F-E-P-R-S-K-G-Dap-K-NH2 (peptide)
peptide: Isovaleryl-ETHFPEIK([AEEA-AEEA-γGlu-C18 diacid])FEPRSKG[Dap]K-NH2
modifications: lactam 6-16
SMILES: CC[C@H](C)[C@@H]1NC(=O)[C@@H](NC(=O)[C@@H]2CCCN2C(=O)[C@H](Cc2ccccc2)NC(=O)[C@H](Cc2c[nH]cn2)NC(=O)[C@@H](NC(=O)[C@H](CCC(=O)O)NC(=O)CC(C)C)[C@@H](C)O)CCC(=O)NC[C@@H](C(=O)N[C@@H](CCCCN)C(N)=O)NC(=O)CNC(=O)[C@H](CCCCN)NC(=O)[C@H](CO)NC(=O)[C@H](CCCNC(=N)N)NC(=O)[C@@H]2CCCN2C(=O)[C@H](CCC(=O)O)NC(=O)[C@H](Cc2ccccc2)NC(=O)[C@H](CCCCNC(=O)COCCOCCNC(=O)COCCOCCNC(=O)CC[C@H](NC(=O)CCCCCCCCCCCCCCCCC(=O)O)C(=O)O)NC1=O
B7: Isovaleric Acid-E-T-H-F-P-A-I-[Lys(Ahx_C14_acid)]-F-E-P-R-S-K-G-A-[(D)Lys]-NH2 (peptide)
peptide: Isovaleryl-ETHFPAIK([Ahx-Myristoyl])FEPRSKGA[dK]-NH2
SMILES: CCCCCCCCCCCCCC(=O)NCCCCCC(=O)NCCCC[C@H](NC(=O)[C@@H](NC(=O)[C@H](C)NC(=O)[C@@H]1CCCN1C(=O)[C@H](Cc1ccccc1)NC(=O)[C@H](Cc1c[nH]cn1)NC(=O)[C@@H](NC(=O)[C@H](CCC(=O)O)NC(=O)CC(C)C)[C@@H](C)O)[C@@H](C)CC)C(=O)N[C@@H](Cc1ccccc1)C(=O)N[C@@H](CCC(=O)O)C(=O)N1CCC[C@H]1C(=O)N[C@@H](CCCNC(=N)N)C(=O)N[C@@H](CO)C(=O)N[C@@H](CCCCN)C(=O)NCC(=O)N[C@@H](C)C(=O)N[C@H](CCCCN)C(N)=O
B8: Isovaleric Acid-[Lys(1PEG2_1PEG2_IsoGlu_C18_Diacid)]-T-H-[Dpa]-P-A-I-[(D)Lys]-[bhPhe]-NH2 (peptide)
peptide: Isovaleryl-K([AEEA-AEEA-γGlu-C18 diacid])TH[Dip]PAI[dK][β3hF]-NH2
SMILES: CC[C@H](C)[C@H](NC(=O)[C@H](C)NC(=O)[C@@H]1CCCN1C(=O)[C@@H](NC(=O)[C@H](Cc1c[nH]cn1)NC(=O)[C@@H](NC(=O)[C@H](CCCCNC(=O)COCCOCCNC(=O)COCCOCCNC(=O)CC[C@H](NC(=O)CCCCCCCCCCCCCCCCC(=O)O)C(=O)O)NC(=O)CC(C)C)[C@@H](C)O)C(c1ccccc1)c1ccccc1)C(=O)N[C@H](CCCCN)C(=O)N[C@H](CC(N)=O)Cc1ccccc1
B9: Isovaleric Acid-E-T-H-F-P-A-I-[Lys(Ahx_C14_acid)]-F-E-P-R-S-K-G-[(D)Ala]-NH2 (peptide)
peptide: Isovaleryl-ETHFPAIK([Ahx-Myristoyl])FEPRSKG[dA]-NH2
SMILES: CCCCCCCCCCCCCC(=O)NCCCCCC(=O)NCCCC[C@H](NC(=O)[C@@H](NC(=O)[C@H](C)NC(=O)[C@@H]1CCCN1C(=O)[C@H](Cc1ccccc1)NC(=O)[C@H](Cc1c[nH]cn1)NC(=O)[C@@H](NC(=O)[C@H](CCC(=O)O)NC(=O)CC(C)C)[C@@H](C)O)[C@@H](C)CC)C(=O)N[C@@H](Cc1ccccc1)C(=O)N[C@@H](CCC(=O)O)C(=O)N1CCC[C@H]1C(=O)N[C@@H](CCCNC(=N)N)C(=O)N[C@@H](CO)C(=O)N[C@@H](CCCCN)C(=O)NCC(=O)N[C@H](C)C(N)=O

The target of this assay is T1, human ferroportin (SLC40A1) fused in frame with GFP, stably expressed in HEK293 cells (human, UniProt Q9NP59 1-571).
T1 sequence (looked up): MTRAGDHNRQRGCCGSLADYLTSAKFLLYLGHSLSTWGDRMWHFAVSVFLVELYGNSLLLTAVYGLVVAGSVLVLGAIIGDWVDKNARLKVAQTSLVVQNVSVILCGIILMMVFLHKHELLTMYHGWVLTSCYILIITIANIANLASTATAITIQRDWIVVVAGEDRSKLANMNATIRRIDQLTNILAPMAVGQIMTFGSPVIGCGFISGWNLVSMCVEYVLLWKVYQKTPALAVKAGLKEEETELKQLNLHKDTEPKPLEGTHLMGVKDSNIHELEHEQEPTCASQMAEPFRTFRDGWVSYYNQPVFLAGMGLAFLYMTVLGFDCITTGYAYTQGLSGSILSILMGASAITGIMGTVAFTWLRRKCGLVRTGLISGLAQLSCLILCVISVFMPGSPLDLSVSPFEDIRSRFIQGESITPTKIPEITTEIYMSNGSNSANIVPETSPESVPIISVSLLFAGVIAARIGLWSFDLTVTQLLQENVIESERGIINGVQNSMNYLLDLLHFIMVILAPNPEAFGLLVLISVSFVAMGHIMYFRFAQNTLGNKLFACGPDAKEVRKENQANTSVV
Put plainly: cell-based or functional assay.
B1: the “FPN IC50” value stood at 3370 nM.
Consider Isovaleryl-ETHFPAIK([γGlu-C10 acid])FEPRSKGAK-NH2 [Isovaleric Acid-E-T-H-F-P-A-I-[Lys(IsoGlu_C10_acid)]-F-E-P-R-S-K-G-A-K-NH2], for which the “FPN IC50” value turned out to be 3310 nM.
The figure for B2 is 1160 nM; for Isovaleryl-ETHFPAIK([Ahx-C12 acid])FEPRSKGAK-NH2 [Isovaleric Acid-E-T-H-F-P-A-I-[Lys(Ahx_C12_acid)]-F-E-P-R-S-K-G-A-K-NH2] it is 1070 nM.
As to Isovaleryl-ETHFPAIK([γGlu-Myristoyl])FEPRSKGAK-NH2 [Isovaleric Acid-E-T-H-F-P-A-I-[Lys(IsoGlu_C14_acid)]-F-E-P-R-S-K-G-A-K-NH2], the “FPN IC50” value turned out to be 822 nM.
The value for B3 was over 3000 nM.
Take Isovaleryl-ETHFPAIK([γGlu-Myristoyl])FEPRSKG[dA]-NH2 [Isovaleric Acid-E-T-H-F-P-A-I-[Lys(IsoGlu_C14_acid)]-F-E-P-R-S-K-G-[(D)Ala]-NH2]: the “FPN IC50” value turned out to be 5730 nM.
The value for Isovaleryl-ETHFPAIK([γGlu-Myristoyl])FEPRSKGA[dK]-NH2 [Isovaleric Acid-E-T-H-F-P-A-I-[Lys(IsoGlu_C14_acid)]-F-E-P-R-S-K-G-A-[(D)Lys]-NH2] was 718 nM; that for B4 was over 10000 nM.
The value for Isovaleryl-LTH[Dip]P[NMeK]([Ahx-Palmitoyl])[N_Butyl_Phe] [Isovaleric Acid-L-T-H-[Dpa]-P-NMe[Lys(Ahx_Palm)]-N_Butyl_Phe] was 62.6 nM; that for B5 was 1280 nM; that for Isovaleryl-ETHFPAIK([γGlu-Myristoyl])FEPR[dS]-NH2 [Isovaleric Acid-E-T-H-F-P-A-I-[Lys(IsoGlu_C14_acid)]-F-E-P-R-[(D)Ser]-NH2] was 3680 nM.
Turning to B6, the “FPN IC50” value was over 10000 nM.
The value for Isovaleryl-K(Gal)TH[Dip]PK([Ahx-Palmitoyl])[β3hF]-NH2 [Isovaleric Acid-[Lys(Gal-T-H-[Dpa]-P-[Lys(Ahx_Palm)]-[bhPhe]-NH2] was 758 nM.
The figure for Isovaleryl-[meL]TH[Dip]P[NMeK]([Ahx-Palmitoyl])-N_Butyl_Phe [Isovaleric Acid-meL-T-H-[Dpa]-P-NMe[Lys(Ahx_Palm)]-N_Butyl_Phe] is 71 nM.
Take Isovaleryl-ETHFPAIK([Ahx-C10 acid])FEPRSKGAK-NH2 [Isovaleric Acid-E-T-H-F-P-A-I-[Lys(Ahx_C10_acid)]-F-E-P-R-S-K-G-A-K-NH2]: the “FPN IC50” value is over 3000 nM.
The figure for B7 is 1160 nM; for B8 it is 2160 nM.
The figure for Isovaleryl-K(GalNH)TH[Dip]PAIK([Ahx-Palmitoyl])[β3hF]-NH2 [Isovaleric Acid-[Lys(GalNH-T-H-[Dpa]-P-A-I-[Lys(Ahx_Palm)]-[bhPhe]-NH2] is 150 nM; for Isovaleryl-ETHFPAIK([Ahx-Myristoyl])FEPRSKGAK-NH2 [Isovaleric Acid-E-T-H-F-P-A-I-[Lys(Ahx_C14_acid)]-F-E-P-R-S-K-G-A-K-NH2] it is 689 nM.
The figure for B9 is 1070 nM; for Isovaleryl-ETHFPAIK([γGlu-C12 acid])FEPRSKGAK-NH2 [Isovaleric Acid-E-T-H-F-P-A-I-[Lys(IsoGlu_C12_acid)]-F-E-P-R-S-K-G-A-K-NH2] it is 4490 nM.
